The chains are these.
B1: Peroxisome assembly protein 22 (Saccharomyces cerevisiae), P39718 (parent)
chain: MPPPSRSRINKTRTLGIVGTAIAVLVTSYYIYQKVTSAKEDNGARPPEGDSVKENKKARKSKCIIMSKSIQGLPIKWEEYAADEVVLLVPTSHTDGSMKQAIGDAFRKTKNEHKIIYCDSMDGLWSCVRRLGKFQCILNSRDFTSSGGSDAAVVPEDIGRFVKFVVDSDVEDVLIDTLCN
partner: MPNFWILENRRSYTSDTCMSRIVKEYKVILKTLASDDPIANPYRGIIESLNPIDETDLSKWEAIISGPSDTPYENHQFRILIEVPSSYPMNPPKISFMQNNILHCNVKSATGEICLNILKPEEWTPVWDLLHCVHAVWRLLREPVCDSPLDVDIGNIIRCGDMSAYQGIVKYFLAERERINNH
B2: Ubiquitin-conjugating enzyme E2-21 kDa (Saccharomyces cerevisiae), P29340 (parent)
chain: B1 partner
partner: B1 chain

Variants of B1 are the subject of one experiment. The following applies: with ubcx_yeast PEX4, P29340.
On to MPPPSRSRINKTRTLGIVGTAIAVLVTSYYIYQKVTSAKEDNGARPPEGDSVKENKKARKSKCIIMSKSIQGLPIKWEEYAADEVVLLVPTSHTDGSMKQAIGDAFRKTKNEHKIIYCDSMDGLWSCVRRLGAFQCILNSRDFTSSGGSDAAVVPEDIGRFVKFVVDSDVEDVLIDTLCN [K133A], for which the “effect of a mutation on the interaction” value is listed as “decreasing interaction”.

In another experiment the parent is B2. The following applies: with pex22_yeast PEX22, P39718.
For the variant MPNFWILENRRSYTSDTCMSRIVKEYKVILKTLASDDPIANPYRGIIESLNPIDETDLSKWEAIISGPSDTPYENHQFRILIEVPSSYPMNPPKISFMQNNILHCNVKSATGEICLNILKPEEWTPVWDLLHCVHAVWRLLREPVCDSPLDVDIGNIIRCGDMSAYQGIVKFFLAERERINNH [Y172F], the “effect of a mutation on the interaction” value is reported as “decreasing interaction”.

The variants in another experiment derive from B2. The following applies: with pex22_yeast PEX22, P39718. This is another data set of the same source.
As for MPNFWILENRRSYTSDTCMSRIVKEYKVILKTLASDDPIANPYRGIIESLNPIDETDLSKWEAIISGPSDTPYENHQFRILIEVPSSYPMNPPKISFMQNNILHCNVKSATGEICLNILKPEEWTPVWDLLHCVHAVWRLLREPVCDSPLDVDIGNIIRCGDMSAYQGIVKAFLAERERINNH [Y172A], the “effect of a mutation on the interaction” value was “disrupting interaction”.

The values are drawn from IntAct's records for PubMed 22085930.
